± gives the standard deviation of the averaged measurements.
B1: library; a variant is named by its letters at N, in order (parent)
chain: GCUGUCACCGGUGUAUUACCCUAGUGGUCGACCGGUCUGAUGAGUCUNNNNNNAGACGAAACAGC

Key:
[1] = variants of: B1; assay: FACS-Seq fitted mean relative fluorescence mCherry/BFP without ligand (log10 relative fluorescence); ligand: hypoxanthine (xanthine aptamer); higher = higher reporter protein expression; details: HEK293T, ligand present: no
How it was run: (§1)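 Genomic DNA from 6 mCherry/BFP sort bins was PCR-amplified, barcoded and sequenced on MiSeq. The sorted cells were enriched HEK293T libraries, lentivirally transduced with a ribozyme-switch mCherry reporter and an EF1α-BFP marker, incubated with or without ligand for 48 h. Fluorescence derives from a normal fit to the bin counts. The fit was on log10(mCherry/BFP), and means were scaled to five spiked-in control ribozymes.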

[2] = variants of: B1; assay: normalized RNA/DNA level with ligand (relative to sTRSVctl = 100) (log10 (% of sTRSVctl)); ligand: hypoxanthine (xanthine aptamer); higher = less ribozyme self-cleavage, higher mRNA level; details: ligand concentration (+) RNA-Seq: 5 mM, HEK293T, reporter: mCherry (pCS4076), ligand present: yes
Procedure: (§2)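 Hammerhead (sTRSV) ribozyme switch libraries with a ligand aptamer grafted on stem I and a randomized N4-6 loop II, cloned into the 3' UTR of mCherry and transiently transfected into HEK293T cells; RNA-Seq 72 h post transfection with ligand added 1 h before transfection; RNA read count / plasmid DNA read count normalized to the non-cleaving sTRSVctl (x100), log10; sequences with >100 DNA reads. FACS-Seq: lentiviral library sorted into 6 bins after 48 h ligand, log-normal fit mean of mCherry/BFP scaled to controls. Printed sequences are partial switch sequences.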

[3] = variants of: B1; assay: normalized RNA/DNA level without ligand (relative to sTRSVctl = 100) (log10 (% of sTRSVctl)); ligand: hypoxanthine (xanthine aptamer); higher = less ribozyme self-cleavage, higher mRNA level; details: HEK293T, reporter: mCherry (pCS4076), ligand present: no
Procedure: as §2

[4] = variants of: B1; assay: FACS-Seq fitted mean relative fluorescence mCherry/BFP with ligand (log10 relative fluorescence); ligand: hypoxanthine (xanthine aptamer); ligand concentration (+) FACS-Seq: 5 mM; higher = higher reporter protein expression; details: HEK293T, ligand present: yes
How it was run: as §1

| Variant | FACS-Seq fitted mean (log10) [1] | normalized RNA/DNA level with ligand (log10) [2] | normalized RNA/DNA level without ligand (log10) [3] | FACS-Seq fitted mean (log10) [4] |
| --- | --- | --- | --- | --- |
| UCCGAG | 0.3183 ± 0.002 | 1.82 ± 0.054 | 1.38 ± 0.049 | 0.517 ± 0.0072 |
| UCGAGU | -0.023 ± 0.0044 | 1.74 ± 0.037 | 1.2 ± 0.071 | 0.407 ± 0.029 |
| UCGAGA | 0.0619 ± 0.098 | 1.74 ± 0.046 | 1.16 ± 0.086 | 0.455 ± 0.15 |
| CCCGGA | 0.102 ± 0.0056 | 1.97 ± 0.042 | 1.88 ± 0.036 | 0.0786 ± 0.0026 |
| CCCGGG | 0.92 ± 0.051 | 1.94 ± 0.12 | 1.6826 ± 0.0015 | 0.833 ± 0.061 |
| UCGAUC | 0.537 ± 0.11 | 1.98 ± 0.033 | 1.96 ± 0.031 | 0.59 ± 0.045 |
| ACGAUG | 0.311 ± 0.018 | 1.734 ± 0.013 | 1.23 ± 0.036 | 0.629 ± 0.079 |
| ACGAUA | 0.143 ± 0.0029 | 1.87 ± 0.03 | 1.582 ± 0.013 | 0.508 ± 0.011 |
| ACCAGU | -0.346 ± 0.35 | 1.907 ± 0.0063 | 1.8 ± 0.064 | -0.721 ± 0.15 |
| UCCGGG | -0.0285 ± 0.023 | 1.98 ± 0.047 | 1.93 ± 0.031 | 0.2736 ± 0.00093 |
| UCCGGA | 0.226 ± 0.02 | 1.96 ± 0.031 | 1.75 ± 0.021 | 0.384 ± 0.0052 |
| ACCUUG | 0.241 ± 0.0074 | 1.88 ± 0.014 | 1.6 ± 0.055 | 0.521 ± 0.04 |
| CCGAAA | 0.595 ± 0.015 | 1.91 ± 0.049 | 1.7 ± 0.04 | 0.689 ± 0.05 |
| CCGAAG | -0.0351 ± 0.034 | 1.719 ± 0.0075 | 1.2 ± 0.14 | 0.496 ± 0.027 |
| UCCAUG | -0.135 ± 0.032 | 1.88 ± 0.074 | 1.49 ± 0.025 | -0.271 ± 0.076 |
| UCAUCA | 0.87 ± 0.1 | 1.99 ± 0.031 | 1.98 ± 0.044 | 0.763 ± 0.052 |
| GCCGAG | 0.182 ± 0.0042 | 1.856 ± 0.013 | 1.39 ± 0.019 | 0.5906 ± 0.0027 |
| GCCGAA | 0.359 ± 0.087 | 1.96 ± 0.071 | 1.756 ± 0.0038 | 0.445 ± 0.055 |
| GCCGAU | 0.193 ± 0.041 | 1.96 ± 0.027 | 1.76 ± 0.045 | -0.0573 ± 0.24 |
| GCCAUA | 0.231 ± 0.083 | 1.95 ± 0.049 | 1.85 ± 0.079 | 0.487 ± 0.0075 |
| GCCAUG | 0.392 ± 0.0043 | 1.87 ± 0.094 | 1.48 ± 0.15 | 0.683 ± 0.074 |
| GCCCUG | -0.113 ± 0.029 | 1.873 ± 0.0091 | 1.49 ± 0.049 | 0.497 ± 0.092 |
| GCCCUU | 0.019 ± 0.061 | 1.95 ± 0.065 | 1.92 ± 0.058 | 0.231 ± 0.0079 |
| UCCAGU | 0.305 ± 0.066 | 1.96 ± 0.066 | 1.771 ± 0.013 | 0.502 ± 0.0098 |

| Variant | FACS-Seq fitted mean (log10) [1] | normalized RNA/DNA level with ligand (log10) [2] | normalized RNA/DNA level without ligand (log10) [3] | FACS-Seq fitted mean (log10) [4] |
| --- | --- | --- | --- | --- |
| ACAUUC | 0.36 ± 0.034 | 1.979 ± 0.0095 | 1.92 ± 0.062 | 0.421 ± 0.02 |
| GCGACC | 0.07588 ± 0.00049 | 1.88 ± 0.025 | 1.52 ± 0.038 | 0.5 ± 0.093 |
| GCGACG | 0.442 ± 0.017 | 1.81 ± 0.021 | 1.3 ± 0.099 | 0.666 ± 0.035 |
| GCGACA | 0.145 ± 0.041 | 1.888 ± 0.012 | 1.57 ± 0.04 | 0.28 ± 0.021 |
| UCGCCU | -0.0175 ± 0.065 | 2.036 ± 0.016 | 1.89 ± 0.062 | 0.035 ± 0.011 |
| GCCUCG | 0.33703 ± 0.00012 | 1.91 ± 0.039 | 1.6 ± 0.029 | 0.649 ± 0.049 |
| UCAUAG | 0.588 ± 0.1 | 1.89 ± 0.033 | 1.69 ± 0.022 | 0.567 ± 0.11 |
| UCAUAA | 0.7537 ± 0.0032 | 1.93 ± 0.029 | 1.75 ± 0.025 | 0.622 ± 0.0065 |
| UCAUAC | 0.306 ± 0.022 | 1.98 ± 0.041 | 1.89 ± 0.056 | 0.474 ± 0.0069 |
| UCGAAA | 0.163 ± 0.02 | 1.86 ± 0.052 | 1.4 ± 0.051 | 0.395 ± 0.045 |
| UCGAAG | 0.5 ± 0.074 | 1.87 ± 0.039 | 1.417 ± 0.0057 | 0.746 ± 0.025 |
| CCCCAA | -0.321 ± 0.081 | 1.92 ± 0.018 | 1.78 ± 0.046 | -0.16 ± 0.025 |
| UCCUGC | 0.86 ± 0.054 | 2.01 ± 0.056 | 1.919 ± 0.018 | 0.812 ± 0.091 |
| UCCUGG | 0.439 ± 0.047 | 1.94 ± 0.025 | 1.77 ± 0.073 | 0.518 ± 0.021 |
| GCGAGA | -0.0976 ± 0.016 | 1.8 ± 0.042 | 1.31 ± 0.0073 | 0.312 ± 0.025 |
| GCGAGU | 0.238 ± 0.013 | 1.86 ± 0.044 | 1.23 ± 0.059 | 0.662 ± 0.069 |
| GCGAGG | -0.188 ± 0.032 | 1.637 ± 0.015 | 1.11 ± 0.036 | 0.5 ± 0.017 |
| UCCCCA | 0.858 ± 0.055 | 1.94 ± 0.08 | 1.82 ± 0.036 | 0.843 ± 0.088 |
| UCCGUU | -0.463 ± 0.04 | 1.946 ± 0.016 | 1.925 ± 0.019 | -0.148 ± 0.1 |
| UCCGUG | 0.223 ± 0.023 | 1.91 ± 0.071 | 1.47 ± 0.072 | 0.508 ± 0.065 |
| ACCGAU | 0.387 ± 0.047 | 1.89 ± 0.056 | 1.669 ± 0.0087 | 0.531 ± 0.015 |
| GCGCAC | 0.112 ± 0.061 | 1.8 ± 0.2 | 1.412 ± 0.0031 | 0.0185 ± 0.28 |
| GCGCAG | -0.0972 ± 0.035 | 1.58 ± 0.048 | 1.06 ± 0.11 | 0.617 ± 0.052 |
| ACCGGG | 0.153 ± 0.0079 | 1.944 ± 0.015 | 1.89 ± 0.038 | 0.548 ± 0.0066 |

| Variant | FACS-Seq fitted mean (log10) [1] | normalized RNA/DNA level with ligand (log10) [2] | normalized RNA/DNA level without ligand (log10) [3] | FACS-Seq fitted mean (log10) [4] |
| --- | --- | --- | --- | --- |
| CCGCAG | 0.345 ± 0.031 | 1.82 ± 0.072 | 1.39 ± 0.032 | 0.638 ± 0.042 |
| UCCCUG | 0.429 ± 0.01 | 1.87 ± 0.076 | 1.41 ± 0.0038 | 0.587 ± 0.0069 |
| CCCAAA | 0.477 ± 0.017 | 1.922 ± 0.019 | 1.84 ± 0.036 | 0.617 ± 0.11 |
| CCCAAG | 0.293 ± 0.059 | 1.91 ± 0.033 | 1.6 ± 0.079 | 0.439 ± 0.018 |
| GCCGCG | 0.226 ± 0.012 | 1.94 ± 0.045 | 1.521 ± 0.0049 | 0.576 ± 0.024 |
| GCCGCA | 0.533 ± 0.054 | 1.96 ± 0.067 | 1.845 ± 0.0021 | 0.587 ± 0.027 |
| GCGCCC | 0.221 ± 0.029 | 1.95 ± 0.071 | 1.742 ± 0.0061 | 0.44444 ± 0.00011 |
| ACAUCG | 0.306 ± 0.048 | 1.932 ± 0.019 | 1.57 ± 0.016 | 0.584 ± 0.052 |
| ACGAGG | -0.105 ± 0.022 | 1.412 ± 0.013 | 1.04 ± 0.14 | 0.777 ± 0.034 |
| ACGAGU | 0.0593 ± 0.021 | 1.76 ± 0.022 | 1.11 ± 0.047 | 0.609 ± 0.0067 |
| ACGAGC | 0.0832 ± 0.041 | 1.84 ± 0.049 | 1.27 ± 0.045 | 0.585 ± 0.029 |
| ACGAGA | -0.0663 ± 0.023 | 1.67 ± 0.045 | 1.14 ± 0.019 | 0.488 ± 0.018 |
| GCCUUG | 0.213 ± 0.0088 | 1.93 ± 0.05 | 1.46 ± 0.016 | 0.64 ± 0.021 |
| GCCUUA | -0.138 ± 0.047 | 1.97 ± 0.0091 | 1.92 ± 0.026 | -0.197 ± 0.092 |
| GCCUUC | -0.325 ± 0.056 | 1.968 ± 0.0039 | 1.88 ± 0.058 | 0.101 ± 0.059 |
| CCCUCU | 0.556 ± 0.081 | 1.98 ± 0.036 | 1.994 ± 0.015 | 0.481 ± 0.086 |
| UCCGCG | 0.209 ± 0.032 | 1.894 ± 0.009 | 1.512 ± 0.011 | 0.621 ± 0.055 |
| ACGCAU | 0.3211 ± 0.00042 | 1.79 ± 0.021 | 1.42 ± 0.032 | 0.534 ± 0.042 |
| ACGCAA | 0.184 ± 0.18 | 1.88 ± 0.022 | 1.55 ± 0.039 | 0.149 ± 0.02 |
| ACGCAG | -0.302 ± 0.02 | 1.58 ± 0.041 | 1.09 ± 0.044 | 0.377 ± 0.039 |
| CCCGCA | -0.714 ± 0.04 | 1.94 ± 0.028 | 1.91 ± 0.022 | -0.0625 ± 0.038 |
| UCCACG | -0.24 ± 0.012 | 1.94 ± 0.14 | 1.71 ± 0.036 | 0.0232 ± 0.017 |
| GCCCAG | 0.0481 ± 0.032 | 1.81 ± 0.052 | 1.4 ± 0.027 | 0.24 ± 0.019 |

— the supplement of paper PMC6757056
